Measured values taken from US7262177B2, “Conjugates of glycosylated/galactosylated peptide, bifunctional linker, and nucleotidic monomers/polymers, and related compositions and methods of use” (priority 2000, dated 2007).

What was measured:
[1] = target: T1, thymidylate synthase (TS) (Homo sapiens, UniProt P04818); experiment: Thymidylate synthase activity in treated TSU cells; assay type: cell-based; settings: TSU carcinoma cells, 1 μM
T1 construct: endogenous in cells; host or cells: Hep G2
Description: Thymidylate synthase inhibition results in insufficient thymidylate levels for DNA replication and can lead to intracellular signaling processes that ultimately lead to cell death. The activity of this paramount enzyme was determined based on the methods of Keyomarsi et al. (J. Biol. Chem., 268, 15142-15149 (1993)). Briefly, 10^5 Hep G2 or TSU cells were grown in culture for 48 h and then the medium was made to a concentration of 1 μM with either po 1-mer or unconjugated 5FdU. At regular intervals (24 hrs, 48 hrs, 72 hrs and 96 hrs) after treatment, the medium was removed and replaced with medium containing deoxyuridine/[^3H]-deoxyuridine mixtures. Cells were incubated at 37° C. for 30 min. Cell medium was then removed and precipitated with charcoal. The supernatant was then counted to determine the presence of [^3H]-H2O. The measurable release of [^3H] as [^3H]-H2O from deoxyuridine, 5′-monophosphate (dUMP) substrate reflects thymidylate synthase activity.

[2] = Hepatic and systemic toxicity, 4 weekly bolus injections; assay type: in vivo, CD-1 mice
Description: Mice have previously been used as in vivo models for 5FU drug testing in the following manner (Ain et al., J. Surg. Res., 57, 366-372 (1994); Wang et al., Cancer Res., 50, 869s-872s (1990)). The plasma profiles, induced toxicities and pharmacokinetics of 5FU in mice are similar to those observed in humans (Wagner et al., Cancer Res., 46, 1499-1506 (1986)). Both po 1-mer and 5FdU were administered on a clinically relevant regimen of 4 weekly bolus injections via the tail vein (Anfield et al., Cancer, 39, 34-40 (1977)). The starting doses of 10 mg/kg and 15 mg/kg were determined by extrapolation of the in vitro data. One week after each injection, a cohort of animals (6 animals/dose/treatment) was sacrificed. Blood and liver samples were collected from each animal and assayed for hepatic and systemic toxicities. The blood sample analyses included a Superchem panel and a total blood count. The Superchem panel assayed blood levels of glucose, urea nitrogen (BUN), creatinine, total protein, albumin, both conjugated and unconjugated bilirubin, triglycerides, SGOT, SGPT, triglycerides, CPK, alkaline phosphatase, and peripheral blood differentials. Total blood counts were analyzed for hematocrit, as well as both red and white blood cell counts. Liver samples were subjected to histological analysis in order to determine changes in morphology, architecture and increase in necrotic tissue as compared to the controls. Any acute or sustained increases in blood counts or serum components indicative of organ damage in comparison with the untreated control was taken to be indicative of a toxic response. In addition, the weights of each cohort were recorded throughout the treatment period as an indication of their clinical condition.

[3] = 10 mg/kg weekly, WEEK 6 (treatment stopped for two weeks)

T1 sequence (P04818 2-313 limits assumed): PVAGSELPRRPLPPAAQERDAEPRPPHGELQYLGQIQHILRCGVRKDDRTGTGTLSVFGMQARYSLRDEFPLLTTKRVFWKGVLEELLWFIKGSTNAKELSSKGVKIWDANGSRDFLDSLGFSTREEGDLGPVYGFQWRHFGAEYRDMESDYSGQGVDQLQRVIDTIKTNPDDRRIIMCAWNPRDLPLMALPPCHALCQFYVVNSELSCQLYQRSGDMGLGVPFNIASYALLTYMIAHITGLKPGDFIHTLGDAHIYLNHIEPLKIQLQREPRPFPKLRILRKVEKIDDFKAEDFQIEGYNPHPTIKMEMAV

For `CC(=O)N[C@H]1[C@H](OCCCCCCNC(=O)CC[C@H](NC(=O)CC[C@H](NC(=O)[C@H](Cc2ccc(O)cc2)NC(=O)C2CCC(CN3C(=O)CC(SCCCCCCOP(=O)(O)OC[C@H]4O[C@@H](n5cc(F)c(=O)[nH]c5=O)C[C@@H]4O)C3=O)CC2)C(=O)NCCCCCCO[C@@H]2O[C@H](CO)[C@H](O)[C@H](O)[C@H]2NC(C)=O)C(=O)NCCCCCCO[C@@H]2O[C@H](CO)[C@H](O)[C@H](O)[C@H]2NC(C)=O)O[C@H](CO)[C@H](O)[C@@H]1O` (stereo partly shown) [po 1-mer, YEE(ahGalNAc)3-SMCC-poFU], the “inhibition of TS activity” value [1] was “no inhibitory effect”, the “histological analysis of liver” value ([2]; 10 mg/kg weekly) was “mild hepatocellular swelling” and the “increased total bilirubin and gamma-glutamyl transferase (GT) levels” value ([2]; 10 mg/kg weekly) was “not observed”. The lactate dehydrogenase levels ([2]; 10 mg/kg weekly) was “increased”, the BUN ([2]; 10 mg/kg weekly, WEEK 1) was 24.66 mg/dL and the Calcium ([2]; 10 mg/kg weekly, WEEK 1) was 7.56 mg/dL. The Chloride ([2]; 10 mg/kg weekly, WEEK 1) was 106.33 meq/l, the MCH ([2]; 10 mg/kg weekly, WEEK 1) was 17.2 pg and the MCV ([2]; 10 mg/kg weekly, WEEK 1) was 51.5 fL. The Potassium ([2]; 10 mg/kg weekly, WEEK 1) was 11.63 meq/l, the SGOT ([2]; 10 mg/kg weekly, WEEK 1) was 335.5 u/l and the SGPT ([2]; 10 mg/kg weekly, WEEK 1) was 46.5 u/l. The Sodium ([2]; 10 mg/kg weekly, WEEK 1) was 155.6 meq/l, the WBC ([2]; 10 mg/kg weekly, WEEK 1) was 4.86 thds/cmm and the BUN ([2]; 10 mg/kg weekly, WEEK 2) was 18 mg/dL. For the same molecule, the Calcium ([2]; 10 mg/kg weekly, WEEK 2) was 7.75 mg/dL, the Chloride ([2]; 10 mg/kg weekly, WEEK 2) was 95 meq/l and the MCH ([2]; 10 mg/kg weekly, WEEK 2) was 15.6 pg. It also gave an MCV ([2]; 10 mg/kg weekly, WEEK 2) of 51 fL, a Potassium ([2]; 10 mg/kg weekly, WEEK 2) of 11.1 meq/l and an SGOT ([2]; 10 mg/kg weekly, WEEK 2) of 911.33 u/l. The SGPT ([2]; 10 mg/kg weekly, WEEK 2) was 110 u/l, the Sodium ([2]; 10 mg/kg weekly, WEEK 2) was 142.5 meq/l and the WBC ([2]; 10 mg/kg weekly, WEEK 2) was 3.16 thds/cmm. The BUN ([2]; 10 mg/kg weekly, WEEK 3) was 22 mg/dL, the Calcium ([2]; 10 mg/kg weekly, WEEK 3) was 8.85 mg/dL and the Chloride ([2]; 10 mg/kg weekly, WEEK 3) was 87.5 meq/l. For the same molecule, the MCH ([2]; 10 mg/kg weekly, WEEK 3) was 16.56 pg, the MCV ([2]; 10 mg/kg weekly, WEEK 3) was 56 fL and the Potassium ([2]; 10 mg/kg weekly, WEEK 3) was 8.9 meq/l. The SGOT ([2]; 10 mg/kg weekly, WEEK 3) was 1174 u/l, the SGPT ([2]; 10 mg/kg weekly, WEEK 3) was 177 u/l and the Sodium ([2]; 10 mg/kg weekly, WEEK 3) was 152.5 meq/l. The WBC ([2]; 10 mg/kg weekly, WEEK 3) was 2.8 thds/cmm, the BUN ([2]; 10 mg/kg weekly, WEEK 4) was 21.33 mg/dL and the Calcium ([2]; 10 mg/kg weekly, WEEK 4) was 6.5 mg/dL. For the same molecule, the Chloride ([2]; 10 mg/kg weekly, WEEK 4) was 86.66 meq/l, the MCH ([2]; 10 mg/kg weekly, WEEK 4) was 16.42 pg and the MCV ([2]; 10 mg/kg weekly, WEEK 4) was 52.83 fL. For the same molecule, the Potassium ([2]; 10 mg/kg weekly, WEEK 4) was 12.46 meq/l, the SGOT ([2]; 10 mg/kg weekly, WEEK 4) was 1549.5 u/l and the SGPT ([2]; 10 mg/kg weekly, WEEK 4) was 125.66 u/l. The Sodium ([2]; 10 mg/kg weekly, WEEK 4) was 161.6 meq/l, the WBC ([2]; 10 mg/kg weekly, WEEK 4) was 1.83 thds/cmm and the BUN [2, 3] was 22.44 mg/dL. It also gave a Calcium [2, 3] of 7.7 mg/dL, a Chloride [2, 3] of 89.72 meq/l and an MCH [2, 3] of 16.1 pg. It also gave an MCV [2, 3] of 51.18 fL, a Potassium [2, 3] of 10.82 meq/l and an SGOT [2, 3] of 1211.61 u/l. The SGPT [2, 3] was 137.55 u/l, the Sodium [2, 3] was 162.22 meq/l and the WBC [2, 3] was 3.03 thds/cmm. The weight gain ([2]; 10 mg/kg weekly, four week period) was “progressive and similar to the saline-treated control mice”, the “complete blood count: platelets” value ([2]; 15 mg/kg weekly) was “mild thrombocytopenia” and the “histological analysis of liver” value ([2]; 15 mg/kg weekly) was “mild hepatocellular swelling and limited subcapsular fibrosis in one mouse”. For the same molecule, the “increased total bilirubin and gamma-GT levels” value ([2]; 15 mg/kg weekly) was “not observed”, the lactate dehydrogenase levels ([2]; 15 mg/kg weekly) was “increased” and the weight gain ([2]; 15 mg/kg weekly) was “somewhat less than the untreated control mice”. The BUN ([2]; 15 mg/kg weekly, WEEK 1) was 26 mg/dL, the Calcium ([2]; 15 mg/kg weekly, WEEK 1) was 9.15 mg/dL and the Chloride ([2]; 15 mg/kg weekly, WEEK 1) was 101.33 meq/l. The MCH ([2]; 15 mg/kg weekly, WEEK 1) was 16.83 pg, the MCV ([2]; 15 mg/kg weekly, WEEK 1) was 50 fL and the Potassium ([2]; 15 mg/kg weekly, WEEK 1) was 8.9 meq/l. For the same molecule, the SGOT ([2]; 15 mg/kg weekly, WEEK 1) was 730 u/l, the SGPT ([2]; 15 mg/kg weekly, WEEK 1) was 67.5 u/l and the Sodium ([2]; 15 mg/kg weekly, WEEK 1) was 154.5 meq/l. For the same molecule, the WBC ([2]; 15 mg/kg weekly, WEEK 1) was 2 thds/cmm, the BUN ([2]; 15 mg/kg weekly, WEEK 3) was 22 mg/dL and the Calcium ([2]; 15 mg/kg weekly, WEEK 3) was 7.73 mg/dL. For the same molecule, the Chloride ([2]; 15 mg/kg weekly, WEEK 3) was 87.5 meq/l, the MCH ([2]; 15 mg/kg weekly, WEEK 3) was 16.56 pg and the MCV ([2]; 15 mg/kg weekly, WEEK 3) was 56.556 fL. The Potassium ([2]; 15 mg/kg weekly, WEEK 3) was 8.7 meq/l, the SGOT ([2]; 15 mg/kg weekly, WEEK 3) was 1194 u/l and the SGPT ([2]; 15 mg/kg weekly, WEEK 3) was 120.3 u/l. It also gave a Sodium ([2]; 15 mg/kg weekly, WEEK 3) of 156.5 meq/l, a WBC ([2]; 15 mg/kg weekly, WEEK 3) of 2.1 thds/cmm and a BUN ([2]; 15 mg/kg weekly, WEEK 4) of 20.33 mg/dL. It also gave a Calcium ([2]; 15 mg/kg weekly, WEEK 4) of 6.7 mg/dL, a Chloride ([2]; 15 mg/kg weekly, WEEK 4) of 81.66 meq/l and an MCH ([2]; 15 mg/kg weekly, WEEK 4) of 14.2 pg. For the same molecule, the MCV ([2]; 15 mg/kg weekly, WEEK 4) was 51 fL, the Potassium ([2]; 15 mg/kg weekly, WEEK 4) was 13.46 meq/l and the SGOT ([2]; 15 mg/kg weekly, WEEK 4) was 1669.5 u/l. For the same molecule, the SGPT ([2]; 15 mg/kg weekly, WEEK 4) was 123.66 u/l, the Sodium ([2]; 15 mg/kg weekly, WEEK 4) was 165.6 meq/l and the WBC ([2]; 15 mg/kg weekly, WEEK 4) was 1.85 thds/cmm. For the same molecule, the overall toxicity ([2]; 10 and 15 mg/kg weekly) was “mild at best”.
